# Test results: patent US20130315910A1 (Xencor, published 2013)
# T1: mFcγRIIb (Mus musculus, UniProt P08101)
# T1 construct: extracellular region, C-terminal His- and GST-tag; also called mouse FcγRII
# T1 sequence (receptor extracellular region, looked up): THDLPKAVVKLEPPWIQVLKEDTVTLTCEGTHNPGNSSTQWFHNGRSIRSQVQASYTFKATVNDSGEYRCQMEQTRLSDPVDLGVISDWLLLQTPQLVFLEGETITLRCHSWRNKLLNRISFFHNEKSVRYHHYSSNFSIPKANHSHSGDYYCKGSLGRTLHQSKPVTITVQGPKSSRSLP
# T2: mFcγRIV
# T2 construct: also called mouse FcγRIV; not shown: C-terminal His and GST tags (named only on our card)
# T2 chain: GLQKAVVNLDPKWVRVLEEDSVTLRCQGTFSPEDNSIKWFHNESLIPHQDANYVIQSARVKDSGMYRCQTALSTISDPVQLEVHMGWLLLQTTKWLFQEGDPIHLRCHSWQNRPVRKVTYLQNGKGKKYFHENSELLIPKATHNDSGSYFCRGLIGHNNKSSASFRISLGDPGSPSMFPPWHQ
# T3: cynoFcγRIIb (Macaca fascicularis, UniProt A0A140HDP4)
# T3 construct: extracellular region, C-terminal His- and GST-tag; also called cynomolgus monkey FcγRIIb
# T3 sequence (receptor extracellular region): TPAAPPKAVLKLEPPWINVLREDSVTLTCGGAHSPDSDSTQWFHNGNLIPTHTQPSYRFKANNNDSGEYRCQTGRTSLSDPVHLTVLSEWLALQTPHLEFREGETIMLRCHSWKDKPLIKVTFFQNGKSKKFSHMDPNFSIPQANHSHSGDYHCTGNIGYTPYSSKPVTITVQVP
# T4: human FcγRIIb receptor protein (R&D Systems) (human, UniProt P31994 46-217)
# T4 construct: Bought protein injected over captured antibody in Biacore; also called CD32b
# T4 sequence (looked up): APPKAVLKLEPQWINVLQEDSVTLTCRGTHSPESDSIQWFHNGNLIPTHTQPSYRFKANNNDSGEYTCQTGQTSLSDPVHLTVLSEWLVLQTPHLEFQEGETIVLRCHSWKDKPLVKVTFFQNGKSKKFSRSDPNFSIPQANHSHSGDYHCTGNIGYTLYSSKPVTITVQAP
# T5: human FcγRIIb on cells (transfected HEK293T cells; primary human B cells) (human, UniProt P31994 43-310)
# T5 construct: whole, on cells; also called CD32b
# T5 sequence (looked up): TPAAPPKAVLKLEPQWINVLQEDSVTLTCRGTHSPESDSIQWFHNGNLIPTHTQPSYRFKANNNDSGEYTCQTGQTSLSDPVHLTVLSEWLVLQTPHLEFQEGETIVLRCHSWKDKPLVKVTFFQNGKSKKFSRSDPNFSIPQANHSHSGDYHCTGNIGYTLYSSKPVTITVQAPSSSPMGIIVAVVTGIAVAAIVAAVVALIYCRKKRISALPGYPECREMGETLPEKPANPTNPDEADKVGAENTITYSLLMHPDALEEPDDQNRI
# Legend:
# mFcγRIIb = target: T1, mFcγRIIb; assay: SPR
# mFcγRIV = target: T2, mFcγRIV; assay: SPR
# cynoFcγRIIb = target: T3, cynoFcγRIIb; assay: SPR
# cynoFcγRIIIa = target: T6, cynoFcγRIIIa (Macaca fascicularis, UniProt Q8SPW2); assay: SPR
# T6 construct: extracellular region, C-terminal His- and GST-tag; also called cynomolgus monkey FcγRIIIa
# [1] = target: T4, human FcγRIIb receptor protein (R&D …); assay: Biacore SPR, Kd(native IgG1)/Kd(variant)
# [2] = target: T4, human FcγRIIb receptor protein (R&D …); assay: Biacore SPR, antibody captured on protein A/G chip, FcγR injected
# [3] = target: T5, human FcγRIIb on cells (transfected …); assay: flow cytometry on FcγRIIb-transfected 293T cells [top left panel]
# Method: (§1) In order to validate the Biacore data and evaluate receptor binding of the variants on the cell surface, binding of select antibodies to cells expressing FcγRIIb was measured. […] HEK293T cells in DMEM with 10% FBS were transfected with human FcγRIIb cDNA in pCMV6 expression vector (Origene Technologies, Rockville, Md.), cultured for 3 days, harvested, washed twice in PBS, resuspended in PBS with 0.1% BSA (PBS/BSA), and aliquoted at 2×10^5 cells per well into 96-well microtiter plates. Fc variant antibodies were serially diluted in PBS/BSA then added to the cells and incubated with mixing for 1 h at room temperature. After extensive washing with PBS/BSA, phycoerythrin (PE)-labeled anti-human-Fab-specific goat F(ab′)2 fragment was added for detection. Cells were incubated for 30 min at room temperature, washed, and resuspended in PBS/BSA. Binding was evaluated using a FACSCanto II flow cytometer (BD Biosciences, San Jose, Calif.), and the mean fluorescence intensity (MFI) was plotted as a function of antibody concentration using Graph Pad Prism software (GraphPad Software, San Diego, Calif.) from which half-maximal binding (EC50) values were determined by sigmoidal dose response modeling.
# [4] = target: T5, human FcγRIIb on cells (transfected …); assay: flow cytometry on FcγRIIb-transfected 293T cells [middle left panel]
# [5] = target: T5, human FcγRIIb on cells (transfected …); assay: flow cytometry on FcγRIIb-transfected 293T cells [bottom right panel]
# Method: as §1
# [6] = target: T5, human FcγRIIb on cells (transfected …); assay: flow cytometry on FcγRIIb-transfected 293T cells [middle right panel]
# Method: as §1
# 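For Fold vs WT IgG1 (off-rate) in this document: fold improvement over WT IgG1 so higher means slower dissociation than WT.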
# T6 sequence (Q8SPW2 17-208): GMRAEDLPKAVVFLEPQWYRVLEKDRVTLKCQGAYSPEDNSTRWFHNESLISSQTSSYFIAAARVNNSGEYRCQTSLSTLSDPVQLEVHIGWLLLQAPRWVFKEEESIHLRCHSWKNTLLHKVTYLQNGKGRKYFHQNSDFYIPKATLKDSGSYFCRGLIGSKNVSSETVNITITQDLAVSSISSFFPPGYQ
binder,measurement,setting,value
"anti-CD19 antibody HuAM4G7 IgG1 S267E (antibody, Positions in EU numbering; copies: 2 + 2) heavy: not shown light: DIVMTQSPATLSLSPGERATLSCRSSKSLQNVNGNTYLYWFQQKPGQSPQLLIYRMSNLNSGVPDRFSGSGSGTEFTLTISSLEPEDFAVYYCMQHLEYPITFGAGTKLEIKRTVAAPSVFIFPPSDEQLKSGTASVVCLLNNFYPREAKVQWKVDNALQSGNSQESVTEQDSKDSTYSLSSTLTLSKADYEKHKVYACEVTHQGLSSPVTKSFNRGEC",Fold vs WT IgG1 (off-rate),mFcγRIIb,1.44 fold
same,Fold vs WT IgG1 (off-rate),mFcγRIV,0.77 fold
same,Fold vs WT IgG1 (off-rate),cynoFcγRIIb,1.09 fold
same,Fold vs WT IgG1 (off-rate),cynoFcγRIIIa,0.515 fold
same,fold affinity relative to native IgG1,[1],20.4 fold
same,Kd,[2],71.9 nM
same,EC50 (read off the curve),[3],~10 ng/mL
same,EC50 (read off the curve),[4],~30 ng/mL
same,EC50 (read off the curve),[5],~20 ng/mL
same,EC50 (read off the curve),[6],~30 ng/mL
